Molecular target: T1, Recombinant N-terminal (His)6-tagged P. abyssi ASH-Ski2, full length (Pyrococcus abyssi, UniProt Q9V2M1 1-855)
T1 sequence (looked up): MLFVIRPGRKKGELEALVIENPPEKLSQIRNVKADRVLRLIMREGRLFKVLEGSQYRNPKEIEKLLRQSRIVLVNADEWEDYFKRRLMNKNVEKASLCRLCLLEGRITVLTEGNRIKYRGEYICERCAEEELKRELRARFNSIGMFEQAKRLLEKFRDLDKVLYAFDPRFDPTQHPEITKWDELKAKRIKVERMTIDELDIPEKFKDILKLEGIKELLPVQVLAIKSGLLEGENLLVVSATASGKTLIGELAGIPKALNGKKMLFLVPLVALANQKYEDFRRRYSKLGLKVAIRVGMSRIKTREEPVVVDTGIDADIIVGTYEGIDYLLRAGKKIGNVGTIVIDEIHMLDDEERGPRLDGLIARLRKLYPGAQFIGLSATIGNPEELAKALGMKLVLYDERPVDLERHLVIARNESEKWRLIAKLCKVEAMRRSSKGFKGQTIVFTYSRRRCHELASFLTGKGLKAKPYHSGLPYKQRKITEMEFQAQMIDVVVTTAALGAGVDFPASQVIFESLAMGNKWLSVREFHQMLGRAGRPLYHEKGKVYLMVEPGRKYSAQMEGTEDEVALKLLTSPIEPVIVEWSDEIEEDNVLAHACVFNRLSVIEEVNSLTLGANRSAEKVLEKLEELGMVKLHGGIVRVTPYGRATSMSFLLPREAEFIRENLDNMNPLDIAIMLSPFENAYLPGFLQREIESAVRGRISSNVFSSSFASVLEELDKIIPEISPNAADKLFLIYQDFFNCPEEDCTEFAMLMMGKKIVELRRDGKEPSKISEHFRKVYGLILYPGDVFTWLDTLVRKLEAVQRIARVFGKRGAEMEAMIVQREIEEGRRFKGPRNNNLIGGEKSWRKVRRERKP
Assay: co-sedimentation

B1: Recombinant aRNase J from P. abyssi with C-terminal (His)6-tag (enzyme, Pyrococcus abyssi, UniProt Q9V076 1-451, looked up)
chain: MWEEINMIKIYTLGGYEEVGKNMTAVEYNGEVVIVDMGIRLDRVLIHEDVEFQKMSSKDLRKLGAIPDDRPIRNKKVVAIALSHGHLDHIGAVGKLAPHYPDVPIYGTPYTIRLAKSEIKGEEYFEVTNPLYETNYGEIVQVSENLAIEFVQITHSIPQSSIVVIHTPEGAVVYACDYKFDNNHPYGERPDYKRLKELGKEGVKVLIAESTRVAEETKTPSEAVAKMLLEDFFLYEGMEADGLIATTFASHIARLQELIEIANKMGRQAIFIGRSLAKYTGIAKQLGLIKMKGSRVLRSPNAVSKVLKEVSQARENYLLIVTGHQGEPGAILTRMANGELYDIGPRDTVVFSAGVIPNPLNVAQRYALETKLRMKGVRMIKNLHVSGHASKEDHRYLIRMLNPEYIVPAHGEFRMLTHYAELAEEEGYMIGKEVFISRNGHVVEIPGSLEG
binding result: binds

Reference: article PMC7144898 (Nucleic Acids Research, 2020)
